# According to publication PMC8024992:
# Biological target: ubiquitin-rhodamine (Ub-Rho) (UniProt P0CG48)
substance,measurement,value
USP1^WT-UAF1 (active) (from UniProt O94782;Q8TAF3) (complex),"KM (= k off/k on) from the KinTek global fit of activity data; +UAF1, Ub-Rho",5.94 µM
